Measurements from paper PMC11988454, “Discovery of synthetic small molecules targeting the central regulator of Salmonella pathogenicity” (Science Advances, 2025).

Columns and labels:
HilC = target: T1, HilC (Salmonella enterica serovar Typhimurium, UniProt E1WAB2 1-295); assay: EMSA; no C26; conditions: protein: recombinant; tags: N-terminal His6-TEV, cleaved by TEV protease; chain copies: 2; label: 5'-Cy5 on strand 1; blunt
T1 sequence: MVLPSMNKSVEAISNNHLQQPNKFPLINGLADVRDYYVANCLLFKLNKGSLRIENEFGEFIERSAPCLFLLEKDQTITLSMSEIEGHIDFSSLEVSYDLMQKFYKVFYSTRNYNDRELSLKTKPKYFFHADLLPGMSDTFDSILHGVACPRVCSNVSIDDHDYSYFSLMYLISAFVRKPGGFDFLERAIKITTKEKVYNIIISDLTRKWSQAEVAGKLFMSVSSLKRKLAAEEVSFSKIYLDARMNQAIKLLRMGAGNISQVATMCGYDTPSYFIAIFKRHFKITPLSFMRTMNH

HilD = target: T2, HilD (Salmonella enterica serovar Typhimurium, UniProt P0CL08 1-309); assay: EMSA; no C26; conditions: protein: recombinant; tags: His6-SUMO removed by SUMO protease; chain copies: 2; label: 5'-Cy5 on strand 1; blunt
T2 sequence: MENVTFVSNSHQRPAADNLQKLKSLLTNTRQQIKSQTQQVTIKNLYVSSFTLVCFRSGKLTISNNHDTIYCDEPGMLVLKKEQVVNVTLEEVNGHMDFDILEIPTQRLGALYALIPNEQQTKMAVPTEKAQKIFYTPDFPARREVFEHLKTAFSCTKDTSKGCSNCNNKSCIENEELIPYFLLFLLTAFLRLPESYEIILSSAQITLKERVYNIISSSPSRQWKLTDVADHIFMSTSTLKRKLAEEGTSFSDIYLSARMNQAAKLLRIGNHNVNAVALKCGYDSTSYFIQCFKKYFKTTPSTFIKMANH

HilD I100A = HilD I100A (Salmonella enterica serovar Typhimurium, UniProt P0CL08 1-309, I100A); assay: EMSA; no C26; affinity comparable to WT; conditions: protein: recombinant; tags: His6-SUMO removed by SUMO protease; chain copies: 2; label: 5'-Cy5 on strand 1; blunt
HilD Y46A = HilD Y46A (Salmonella enterica serovar Typhimurium, UniProt P0CL08 1-309, Y46A); assay: EMSA; no C26; affinity comparable to WT; conditions: protein: recombinant; tags: His6-SUMO removed by SUMO protease; chain copies: 2; label: 5'-Cy5 on strand 1; blunt
HilD Y212A = HilD Y212A (Salmonella enterica serovar Typhimurium, UniProt P0CL08 1-309, Y212A); assay: EMSA; no C26; affinity comparable to WT; conditions: protein: recombinant; tags: His6-SUMO removed by SUMO protease; chain copies: 2; label: 5'-Cy5 on strand 1; blunt
HilD L45A = HilD L45A (Salmonella enterica serovar Typhimurium, UniProt P0CL08 1-309, L45A); assay: EMSA; no C26; affinity comparable to WT; conditions: protein: recombinant; tags: His6-SUMO removed by SUMO protease; chain copies: 2; label: 5'-Cy5 on strand 1; blunt

Measured: binding result

B1: PhilA A1 62 bp (dsDNA)
DNA 1: GGGAGTAAAGAAAAGACGATATCATTATTTTGCAAAAAAATATAAAAATAAGCGCACCATTA
DNA 2: TAATGGTGCGCTTATTTTTATATTTTTTTGCAAAATAATGATATCGTCTTTTCTTTACTCCC
binds: all assays above
